The text below walks through data of patent publication US6835378B2, “Method and compositions for inhibiting thrombin-induced coagulation” (The Texas A&M University System University, priority 2001, dated 2004).

The target of this test is T1, Fg Bβ chain (Homo sapiens, UniProt P02675).
T1 construct: recognized the mature recombinant Bβ chain (residues 1-462); made in house; host or cells: E. coli
T1 sequence (P02675 31-491): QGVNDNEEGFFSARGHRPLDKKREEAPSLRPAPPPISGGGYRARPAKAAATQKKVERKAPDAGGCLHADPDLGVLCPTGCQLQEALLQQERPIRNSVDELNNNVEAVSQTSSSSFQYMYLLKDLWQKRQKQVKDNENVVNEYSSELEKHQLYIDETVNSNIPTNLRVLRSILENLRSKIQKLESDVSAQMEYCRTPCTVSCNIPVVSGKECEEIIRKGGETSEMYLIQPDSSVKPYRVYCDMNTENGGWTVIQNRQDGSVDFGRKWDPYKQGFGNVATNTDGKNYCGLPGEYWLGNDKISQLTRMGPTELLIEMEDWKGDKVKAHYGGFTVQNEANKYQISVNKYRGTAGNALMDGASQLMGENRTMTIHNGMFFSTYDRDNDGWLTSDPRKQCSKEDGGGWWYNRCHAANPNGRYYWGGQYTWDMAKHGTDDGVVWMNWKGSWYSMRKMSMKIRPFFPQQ
Put plainly: Western ligand blot with biotin labeled rSdrG(50-597). The format is binding. The text has this: Construction of Fg Bβ Chain Truncates—An E. coli strain harboring plasmid p668 which contains the cDNA for the Fg Bβ chain was kindly provided by Dr. Susan T. Lord (University of North Carolina, Chapel Hill, N.C.). The 1525 bp fragment from p668 was subcloned into the plasmid pQE30 to produce recombinant mature Bβ chain with a N-terminal His-tag. Additional Bβ chain constructs (FIG. 3A) were made by subcloning into either pQE30 or pGEX-KG (Pharmacia) to produce recombinant proteins with a N-terminal His-tag or Glutathione S-transferase (GST) fusion.
Western Ligand Blot Analysis—Whole E. coli lysates harboring each respective Fg Bβ chain construct were fractionated by SDS-PAGE and the separated proteins were transferred to nitrocellulose membrane with a semi-dry transfer cell (Bio-Rad). The membrane was incubated overnight with 5% (w/v) non-fat dry milk in PBS, pH 7.5 at 4° C. to saturate non-specific binding sites. After blocking, the membrane was washed three times with PBST and then incubated with biotin labeled rSdrG(50-597) (0.5 μM) for 1 h at room temperature. rSdrG(50-597) was biotin labeled using EZ Link-sulfo-NHS-LC biotin (Sigma) according to the manufacturers' instructions. After three more washes with PBST, the blot was incubated with a 1:5000 dilution of streptavidin-AP conjugated for 1 h at room temperature and developed with 5-bromo-4-chloro-3-indolyl phosphate (BCIP) and nitro blue tetrazolium (NBT) (Biorad) in carbonate:bicarbonate buffer (14 mM Na2CO3, 36 mM NaHCO3, 5 mM MgCl2:6H2O, pH 9.8) for ˜15 min at room temperature.

B1: rSdrG(50-597): recombinant His-tagged A region (residues 50-597) of SdrG, a fibrinogen-binding MSCRAMM from S. epidermidis (protein)
chain: HHHHHHAEENTVQDVKDSNMDDELSDSNDQSSNEEKNDVINNSQSINTDDDNQIKKEETNSNDAIENRSKDITQSTTNVDENEATFLQKTPQDNTQLKEEVVKEPSSVESSNSSMDTAQQPSHTTINSEASIQTSDNEENSRVSDFANSKIIESNTESNKEENTIEQPNKVREDSITSQPSSYKNIDEKISNQDELLNLPINEYENKVRPLSTTSAQPSSKRVTVNQLAAEQGSNVNHLIKVTDQSITEGYDDSDGIIKAHDAENLIYDVTFEVDDKVKSGDTMTVNIDKNTVPSDLTDSFAIPKIKDNSGEIIATGTYDNTNKQITYTFTDYVDKYENIKAHLKLTSYIDKSKVPNNNTKLDVEYKTALSSVNKTITVEYQKPNENRTANLQSMFTNIDTKNHTVEQTIYINPLRYSAKETNVNISGNGDEGSTIIDDSTIIKVYKVGDNQNLPDSNRIYDYSEYEDVTNDDYAQLGNNNDVNINFGNIDSPYIIKVISKYDPNKDDYTTIQQTVTMQTTINEYTGEFRTASYDNTIAFSTSSGQGQGDLPPE
Regarding B1, under “0.5 μM biotin labeled protein”, the “binding to truncates lacking the N-terminal 25 residues, rβ(25-95) and rβ(25-195)” value was “failed to bind”; the “recognition of recombinant Bβ chain (1-462) and truncates 1-341, 1-220, 1-195, 1-95” value is listed as “recognized”. Further, for the setting “native Fg chains, data not shown”, the “recognition of Fg chains” value is given as “recognized the Bβ chain, but not the Aα or γ chains of Fg”.
